Reference: doi:10.64898/2025.12.01.691715

How the values were obtained:
[1] = target: Myosin11 (smooth muscle myosin heavy chain, myosin II isoform) (mouse (endogenous in retina)) (UniProt O08638)
[2] = target: Myosin11 (smooth muscle myosin heavy chain, myosin II isoform) (mouse (endogenous in retina)) (UniProt O08638); assay: FRET or BRET

UniProt O08638, sequence (O08638 whole entry, canonical isoform): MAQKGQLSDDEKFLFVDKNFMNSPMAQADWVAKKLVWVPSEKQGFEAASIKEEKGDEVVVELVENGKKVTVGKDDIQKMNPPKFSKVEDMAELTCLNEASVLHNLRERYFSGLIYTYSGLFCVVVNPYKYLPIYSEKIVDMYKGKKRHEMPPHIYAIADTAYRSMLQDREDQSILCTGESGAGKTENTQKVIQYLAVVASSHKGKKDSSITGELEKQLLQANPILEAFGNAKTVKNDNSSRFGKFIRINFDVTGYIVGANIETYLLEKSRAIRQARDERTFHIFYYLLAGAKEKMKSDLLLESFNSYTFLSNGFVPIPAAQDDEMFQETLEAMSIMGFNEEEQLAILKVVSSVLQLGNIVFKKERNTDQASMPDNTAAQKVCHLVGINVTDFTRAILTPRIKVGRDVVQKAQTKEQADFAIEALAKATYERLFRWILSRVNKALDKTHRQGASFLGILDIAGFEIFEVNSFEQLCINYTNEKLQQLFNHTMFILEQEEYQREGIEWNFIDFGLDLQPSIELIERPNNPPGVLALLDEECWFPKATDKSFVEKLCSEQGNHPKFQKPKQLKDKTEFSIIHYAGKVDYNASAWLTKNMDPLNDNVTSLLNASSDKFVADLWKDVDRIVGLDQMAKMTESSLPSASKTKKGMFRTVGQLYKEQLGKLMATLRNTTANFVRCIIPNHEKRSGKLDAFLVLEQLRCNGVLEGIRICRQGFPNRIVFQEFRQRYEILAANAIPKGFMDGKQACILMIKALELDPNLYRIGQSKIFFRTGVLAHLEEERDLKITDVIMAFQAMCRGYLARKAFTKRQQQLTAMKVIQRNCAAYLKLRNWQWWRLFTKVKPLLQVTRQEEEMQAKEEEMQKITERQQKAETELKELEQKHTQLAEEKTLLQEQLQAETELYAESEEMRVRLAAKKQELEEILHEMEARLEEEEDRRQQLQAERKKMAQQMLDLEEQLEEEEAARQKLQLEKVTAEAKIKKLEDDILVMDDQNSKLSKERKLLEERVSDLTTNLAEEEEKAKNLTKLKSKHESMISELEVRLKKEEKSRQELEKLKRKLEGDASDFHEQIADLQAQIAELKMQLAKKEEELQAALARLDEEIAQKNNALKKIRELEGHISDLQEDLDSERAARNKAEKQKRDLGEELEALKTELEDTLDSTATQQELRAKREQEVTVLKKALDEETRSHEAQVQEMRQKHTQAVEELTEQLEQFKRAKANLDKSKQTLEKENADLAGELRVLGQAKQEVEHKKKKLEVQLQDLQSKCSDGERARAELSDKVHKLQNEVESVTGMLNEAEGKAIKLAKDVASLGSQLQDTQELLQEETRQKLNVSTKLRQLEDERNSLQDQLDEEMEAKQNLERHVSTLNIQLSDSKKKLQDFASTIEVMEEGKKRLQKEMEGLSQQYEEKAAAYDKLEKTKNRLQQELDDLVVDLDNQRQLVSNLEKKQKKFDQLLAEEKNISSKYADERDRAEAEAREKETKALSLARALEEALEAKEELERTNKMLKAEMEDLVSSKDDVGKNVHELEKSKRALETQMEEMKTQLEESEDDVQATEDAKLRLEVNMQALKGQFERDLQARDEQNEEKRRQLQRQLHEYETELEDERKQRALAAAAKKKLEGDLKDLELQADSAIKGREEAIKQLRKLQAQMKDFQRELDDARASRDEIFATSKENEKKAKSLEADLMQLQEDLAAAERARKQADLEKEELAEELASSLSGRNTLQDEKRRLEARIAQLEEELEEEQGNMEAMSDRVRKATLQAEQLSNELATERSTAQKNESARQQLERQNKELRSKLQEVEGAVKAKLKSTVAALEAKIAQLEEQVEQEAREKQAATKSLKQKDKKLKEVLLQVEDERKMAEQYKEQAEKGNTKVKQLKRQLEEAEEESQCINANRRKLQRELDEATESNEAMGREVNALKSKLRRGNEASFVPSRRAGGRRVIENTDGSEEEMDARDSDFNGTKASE

- JNDR after noradrenaline, mesh pericytes (orders 3-4), blebbistatin vs. vehicle [1]: 0.81
- FRET efficiency [2]: > 0.8
Substance: α-smooth muscle actin (α-SMA) (from UniProt P62737 1-377) (natural protein)
